Results reported in the Human Domainome abundance scans (Beltran et al. 2025).
± gives the uncertainty stated by the source.

B1: Transcription factor SOX-11, residues 50 to 117; numbered along this chain, P35716 (parent)
chain: KRPMNAFMVWSKIERRKIMEQSPDMHNAEISKRLGKRWKMLKDSEKIPFIREAERLRLKHMADYPDYK

Variants of: B1
Test: abundance fitness (aPCA) (normalised: wild type 0, dead -1); higher = more abundant; growth selection in yeast, the domain comes from the species named
Settings: Homo sapiens

| Variant | abundance fitness |
| --- | --- |
| M19T | -0.103 ± 0.064 |
| M19R | -0.24 ± 0.063 |
| M19K | 0.021 ± 0.15 |
| M19E | -0.069 ± 0.16 |
| M19H | -0.187 ± 0.079 |
| M19N | -0.426 ± 0.071 |
| M19I | -0.062 ± 0.057 |
| M19Q | -0.202 ± 0.15 |
| M19D | -0.649 ± 0.1 |
| M19P | -0.769 ± 0.14 |
| M19G | -0.435 ± 0.076 |
| M19S | -0.264 ± 0.056 |
| M19C | -0.29 ± 0.075 |
| M19W | -0.762 ± 0.19 |
| M19V | -0.042 ± 0.052 |
| H26F | -0.497 ± 0.062 |
| H26E | 0.383 ± 0.14 |
| H26I | -0.266 ± 0.059 |
| H26C | 0.226 ± 0.047 |
| H26S | 0.406 ± 0.041 |
| H26V | -0.283 ± 0.057 |
| H26K | 0.195 ± 0.1 |
| H26Y | -0.368 ± 0.059 |
| H26Q | 0.064 ± 0.095 |

| Variant | abundance fitness |
| --- | --- |
| H26R | -0.106 ± 0.057 |
| H26W | -0.388 ± 0.2 |
| H26T | 0.453 ± 0.058 |
| H26P | 0.205 ± 0.065 |
| H26M | -0.194 ± 0.15 |
| H26N | 0.277 ± 0.052 |
| H26D | 0.414 ± 0.055 |
| H26L | -0.146 ± 0.054 |
| H26A | 0.158 ± 0.062 |
| H26G | 0.22 ± 0.047 |
| D24W | -0.337 ± 0.16 |
| D24A | -0.093 ± 0.069 |
| D24T | -0.22 ± 0.08 |
| D24R | -0.456 ± 0.091 |
| D24P | -0.836 ± 0.15 |
| D24Y | -0.35 ± 0.062 |
| D24H | -0.26 ± 0.079 |
| D24K | -0.578 ± 0.23 |
| D24G | -0.105 ± 0.057 |
| D24E | -0.164 ± 0.17 |
| D24M | -0.63 ± 0.32 |
| D24N | -0.128 ± 0.071 |
| D24V | -0.643 ± 0.085 |
| D24L | -0.507 ± 0.078 |

| Variant | abundance fitness |
| --- | --- |
| D24Q | -0.147 ± 0.32 |
| D24C | -0.435 ± 0.074 |
| D24I | -0.538 ± 0.09 |
| D24F | -0.435 ± 0.066 |
| S31F | -0.246 ± 0.064 |
| S31G | -0.278 ± 0.058 |
| S31D | 0.176 ± 0.059 |
| S31A | 0.143 ± 0.056 |
| S31C | -0.2 ± 0.074 |
| S31E | 0.489 ± 0.11 |
| Q21K | -0.303 ± 0.21 |
| Q21F | -0.661 ± 0.081 |
| Q21Y | -0.581 ± 0.077 |
| Q21V | -0.223 ± 0.055 |
| Q21G | -0.256 ± 0.057 |
| Q21E | 0.148 ± 0.13 |
| Q21T | -0.13 ± 0.077 |
| Q21S | -0.172 ± 0.047 |
| Q21M | -0.35 ± 0.11 |
| Q21P | -0.437 ± 0.13 |
| Q21R | -0.235 ± 0.068 |
| Q21L | -0.353 ± 0.064 |
| Q21I | -0.13 ± 0.056 |
| Q21H | -0.194 ± 0.062 |

| Variant | abundance fitness |
| --- | --- |
| Q21W | -0.313 ± 0.15 |
| Q21C | -0.323 ± 0.055 |
| Q21D | -0.267 ± 0.067 |
| Q21N | -0.156 ± 0.056 |
| W10Y | -0.375 ± 0.065 |
| M25D | -0.717 ± 0.11 |
| M25W | -0.715 ± 0.12 |
| M25N | -0.418 ± 0.075 |
| M25K | -0.608 ± 0.18 |
| M25P | -0.892 ± 0.21 |
| M25A | -0.141 ± 0.072 |
| M25F | -0.571 ± 0.084 |
| M25R | -0.546 ± 0.078 |
| M25C | -0.34 ± 0.058 |
| M25S | -0.53 ± 0.057 |
| M25E | -0.739 ± 0.23 |
| M25T | -0.317 ± 0.089 |
| M25G | -0.759 ± 0.071 |
| M25V | -0.278 ± 0.065 |
| M25Q | -0.782 ± 0.21 |
| M25H | -0.641 ± 0.11 |
| M25Y | -0.793 ± 0.1 |
| N27F | -0.128 ± 0.056 |
| N27Y | -0.213 ± 0.063 |

| Variant | abundance fitness |
| --- | --- |
| N27H | 0.139 ± 0.054 |
| N27A | 0.177 ± 0.064 |
| N27G | -0.096 ± 0.056 |
| N27P | 0.4 ± 0.065 |
| N27S | 0.07 ± 0.049 |
| N27C | -0.08 ± 0.055 |
| N27T | -0.033 ± 0.07 |
| N27E | 0.333 ± 0.11 |
| N27K | -0.178 ± 0.15 |
| N27R | -0.341 ± 0.07 |
| N27Q | 0.205 ± 0.11 |
| N27L | -0.279 ± 0.062 |
| N27M | -0.287 ± 0.15 |
| N27D | 0.403 ± 0.06 |
| N27W | 0.105 ± 0.1 |
| N27V | -0.178 ± 0.055 |
| A28R | -0.266 ± 0.056 |
| A28W | -0.425 ± 0.17 |
| A28C | -0.268 ± 0.055 |
| A28L | -0.211 ± 0.066 |
| A28M | -0.529 ± 0.21 |
| A28Q | -0.247 ± 0.15 |
| A28H | -0.183 ± 0.065 |
| A28Y | -0.34 ± 0.059 |

| Variant | abundance fitness |
| --- | --- |
| A28P | -0.562 ± 0.1 |
| A28D | 0.205 ± 0.056 |
| A28G | -0.205 ± 0.053 |
| A28N | -0.24 ± 0.067 |
| A28T | -0.134 ± 0.069 |
| A28F | -0.47 ± 0.058 |
| A28E | -0.061 ± 0.16 |
| A28K | -0.278 ± 0.12 |
| A28I | -0.205 ± 0.053 |
| E29T | -0.753 ± 0.12 |
| E29I | -0.815 ± 0.095 |
| E29Y | -0.969 ± 0.11 |
| E29R | -1.1 ± 0.13 |
| E29Q | -0.517 ± 0.19 |
| E29L | -0.798 ± 0.093 |
| E29P | -0.866 ± 0.22 |
| E29K | -0.363 ± 0.3 |
| E29C | -0.767 ± 0.087 |
| E29H | -0.666 ± 0.1 |
| E29G | -0.792 ± 0.076 |
| E29S | -0.638 ± 0.07 |
| E29A | -0.436 ± 0.078 |
| I13S | -0.406 ± 0.056 |
| I13R | -0.446 ± 0.062 |

| Variant | abundance fitness |
| --- | --- |
| I13E | -0.077 ± 0.14 |
| I13H | -0.153 ± 0.078 |
| I13T | -0.164 ± 0.064 |
| I13W | -0.684 ± 0.15 |
| I13M | -0.106 ± 0.098 |
| I13N | -0.372 ± 0.059 |
| I13Q | -0.06 ± 0.14 |
| I13P | -0.646 ± 0.11 |
| I13G | -0.206 ± 0.059 |
| I13K | -0.717 ± 0.23 |
| I13C | -0.407 ± 0.067 |
| I13F | -0.263 ± 0.059 |
| I13V | -0.128 ± 0.054 |
| I13L | -0.237 ± 0.061 |
| I13A | -0.135 ± 0.068 |
| E20F | -0.496 ± 0.067 |
| E20T | -0.185 ± 0.13 |
| E20Y | -0.781 ± 0.1 |
| E20W | -0.577 ± 0.17 |
| E20M | -0.723 ± 0.28 |
| E20R | -0.705 ± 0.12 |
| E20H | -0.319 ± 0.14 |
| E20A | -0.348 ± 0.11 |
